B1: DACT1 (dishevelled binding antagonist of beta catenin 1), wildtype, Myc-tagged [human] / DVL2 (dishevelled segment polarity protein 2), Flag(3x)-tagged [not stated] (parent complex)
chain 1: MKPSPAGTAKELEPPAPARGEQRTAEPEGRWREKGEADTERQRTRERQEATLAGLAELEYLRQRQELLVRGALRGAGGAGAAAPRAGELLGEAAQRSRLEEKFLEENILLLRKQLNCLRRRDAGLLNQLQELDKQISDLRLDVEKTSEEHLETDSRPSSGFYELSDGASGSLSNSSNSVFSECLSSCHSSTCFCSPLEATLSLSDGCPKSADLIGLLEYKEGHCEDQASGAVCRSLSTPQFNSLDVIADVNPKYQCDLVSKNGNDVYRYPSPLHAVAVQSPMFLLCLTGNPLREEDRLGNHASDICGGSELDAVKTDSSLPSPSSLWSASHPSSSKKMDGYILSLVQKKTHPVRTNKPRTSVNADPTKGLLRNGSVCVRAPGGVSQGNSVNLKNSKQACLPSGGIPSLNNGTFSPPKQWSKESKAEQAESKRVPLPEGCPSGAASDLQSKHLPKTAKPASQEHARCSAIGTGESPKESAQLSGASPKESPSRGPAPPQENKVVQPLKKMSQKNSLQGVPPATPPLLSTAFPVEERPALDFKSEGSSQSLEEAHLVKAQFIPGQQPSVRLHRGHRNMGVVKNSSLKHRGPALQGLENGLPTVREKTRAGSKKCRFPDDLDTNKKLKKASSKGRKSGGGPEAGVPGRPAGGGHRAGSRAHGHGREAVVAKPKHKRTDYRRWKSSAEISYEEALRRARRGRRENVGLYPAPVPLPYASPYAYVASDSEYSAECESLFHSTVVDTSEDEQSNYTTNCFGDSESSVSEGEFVGESTTTSDSEESGGLIWSQFVQTLPIQTVTAPDLHNHPAKTFVKIKASHNLKKKILRFRSGSLKLMTTV
chain 2: MAGSSTGGGGVGETKVIYHLDEEETPYLVKIPVPAERITLGDFKSVLQRPAGAKYFFKSMDQDFGVVKEEISDDNARLPCFNGRVVSWLVSSDNPQPEMAPPVHEPRAELAPPAPPLPPLPPERTSGIGDSRPPSFHPNVSSSHENLEPETETESVVSLRRERPRRRDSSEHGAGGHRTGGPSRLERHLAGYESSSTLMTSELESTSLGDSDEEDTMSRFSSSTEQSSASRLLKRHRRRRKQRPPRLERTSSFSSVTDSTMSLNIITVTLNMEKYNFLGISIVGQSNERGDGGIYIGSIMKGGAVAADGRIEPGDMLLQVNDMNFENMSNDDAVRVLRDIVHKPGPIVLTVAKCWDPSPQAYFTLPRNEPIQPIDPAAWVSHSAALTGTFPAYPGSSSMSTITSGSSLPDGCEGRGLSVHTDMASVTKAMAAPESGLEVRDRMWLKITIPNAFLGSDVVDWLYHHVEGFPERREARKYASGLLKAGLIRHTVNKITFSEQCYYVFGDLSGGCESYLVNLSLNDNDGSSGASDQDTLAPLPGATPWPLLPTFSYQYPAPHPYSPQPPPYHELSSYTYGGGSASSQHSEGSRSSGSTRSDGGAGRTGRPEERAPESKSGSGSESEPSSRGGSLRRGGEASGTSDGGPPPSRGSTGGAPNLRAHPGLHPYGPPPGMALPYNPMMVVMMPPPPPPVPPAVQPPGAPPVRDLGSVPPELTASRQSFHMAMGNPSEFFVDVM

Variants of: B1
Experiment: co-immunoprecipitation (IP: anti-Myc), band ratio quantified; parent: 1; read off a plot

response	Variant
~0.68	chain 1 K630N
~0.69	chain 1 P669A
~0.72	chain 1 T367K
~0.69	chain 1 R568K
~0.6	chain 1 L823R
~0.72	chain 1 G644D
~0.7	chain 1 L591F

From paper PMC9839807 (2022)
